For this test, the target named is A3B3 of Thermus thermophilus VoV1 (His-tagged A3B3, expressed without a rotor subunit) (T. thermophilus) (UniProt Q56403).
UniProt Q56403, sequence (Q56403 whole entry C28S/S232A/T235S/C255A, chain 1 of 2): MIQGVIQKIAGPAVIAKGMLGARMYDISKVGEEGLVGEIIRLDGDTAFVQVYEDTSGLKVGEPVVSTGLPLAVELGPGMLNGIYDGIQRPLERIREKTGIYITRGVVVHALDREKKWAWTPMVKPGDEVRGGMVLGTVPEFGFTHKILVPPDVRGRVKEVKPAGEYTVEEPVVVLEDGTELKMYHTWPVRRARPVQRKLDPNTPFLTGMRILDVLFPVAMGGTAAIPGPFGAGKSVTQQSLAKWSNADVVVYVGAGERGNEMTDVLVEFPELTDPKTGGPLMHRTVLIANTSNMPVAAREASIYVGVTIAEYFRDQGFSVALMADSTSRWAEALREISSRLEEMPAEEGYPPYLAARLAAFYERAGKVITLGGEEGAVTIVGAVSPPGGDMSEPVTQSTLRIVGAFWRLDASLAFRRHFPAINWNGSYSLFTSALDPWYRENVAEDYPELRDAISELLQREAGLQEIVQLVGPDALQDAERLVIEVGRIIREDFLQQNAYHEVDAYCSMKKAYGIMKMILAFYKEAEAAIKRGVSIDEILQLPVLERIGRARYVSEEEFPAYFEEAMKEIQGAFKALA
UniProt Q56403, sequence (Q56404 whole entry C264S, chain 2 of 2, further chain): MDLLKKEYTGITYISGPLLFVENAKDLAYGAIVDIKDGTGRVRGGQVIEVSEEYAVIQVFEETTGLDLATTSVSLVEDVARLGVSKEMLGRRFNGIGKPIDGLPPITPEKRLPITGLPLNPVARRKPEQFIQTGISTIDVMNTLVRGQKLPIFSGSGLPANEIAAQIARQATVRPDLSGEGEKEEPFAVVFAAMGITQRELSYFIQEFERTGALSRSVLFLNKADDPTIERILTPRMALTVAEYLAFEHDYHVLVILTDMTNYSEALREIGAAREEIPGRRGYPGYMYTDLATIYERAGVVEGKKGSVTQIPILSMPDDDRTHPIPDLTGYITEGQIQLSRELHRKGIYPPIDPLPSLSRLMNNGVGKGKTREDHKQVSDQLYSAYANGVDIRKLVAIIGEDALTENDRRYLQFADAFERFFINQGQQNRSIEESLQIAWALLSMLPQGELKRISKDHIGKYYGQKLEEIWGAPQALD

For “FliJ of Salmonella enterica serovar Typhimurium (from UniProt P0A1K1 1-147) (natural protein)”, the ATPase turnover rate of A3B3J (A3B3 alone ∼4.0 s^−1); 25°C, 4 mM MgATP came to 7 s⁻¹.

The record behind these values is PMC3665681.
